Experimental data taken from PMC8715544 (JACS Au, 2021).

Target: the molecule itself
Assay: SEC

B1: Escherichia coli methionine adenosyltransferase eMAT (enzyme)
chain: MAKHLFTSESVSEGHPDKIADQISDAVLDAILEQDPKARVACETYVKTGMVLVGGEITTSAWVDIEEITRNTVREIGYVHSDMGFDANSCAVLSAIGKQSPDINQGVDRADPLEQGAGDQGLMFGYATNETDVLMPAPITYAHRLVQRQAEVRKNGTLPWLRPDAKSQVTFQYDDGKIVGIDAVVLSTQHSEEIDQKSLQEAVMEEIIKPILPAEWLTSATKFFINPTGRFVIGGPMGDCGLTGRKIIVDTYGGMARHGGGAFSGKDPSKVDRSAAYAARYVAKNIVAAGLADRCEIQVSYAIGVAEPTSIMVETFGTEKVPSEQLTLLVREFFDLRPYGLIQMLDLLHPIYKETAAYGHFGREHFPWEKTDKAQLLRDAAGLK
  stoichiometry N: 4
